Target: human FcγRIIIA (176V isoform, R&D systems, 4325-FC) (human, UniProt P08637 17-208)
Experiment: BLI

Chain of human FcγRIIIA (176V isoform, R&D systems, 4325-FC) (P08637 17-208 F176V): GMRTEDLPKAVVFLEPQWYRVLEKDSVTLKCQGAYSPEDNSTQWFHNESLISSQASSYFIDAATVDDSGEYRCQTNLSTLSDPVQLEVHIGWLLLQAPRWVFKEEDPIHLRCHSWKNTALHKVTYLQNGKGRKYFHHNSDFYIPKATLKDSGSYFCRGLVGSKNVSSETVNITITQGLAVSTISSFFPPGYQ

Kd: 0.11 nM
B1: H01DE4 (antibody)
heavy: not shown
light: not shown
chain: DKTHTCPPCPAPELLGGPDVFLFPPKPKDTLMISRTPEVTCVVVDVSHEDPEVKFNWYVDGVEVHNAKTKPREEQYNSTYRVVSVLTVLHQDWLNGKEYKCKVSNKALPAPEEKTISKAKGQPREPQVCTLPPSREEMTKNQVSLSCAVKGFYPSDIAVEWESNGQPENNYKTTPPVLDSDGSFFLVSKLTVDKSRWQQGNVFSCSVMHEALHNHYTQKSLSLSPGK

Source: patent US20250236682A1 (published 2025)
